Consider 3 molecules from patent US20180036441A1 (Dana-Farber, published 2018).

Positions count from the first letter of the chain named.

To fix the notation:
T1: MUC1-SEA-His protein (UniProt P15941 1039-1148, limits assumed)
T1 construct: domain: SEA; Recombinant antigen used for ELISA coating and as Biacore analyte; also called MUC-SEA-His; antigen protein; not shown: His tag
T1 sequence (looked up): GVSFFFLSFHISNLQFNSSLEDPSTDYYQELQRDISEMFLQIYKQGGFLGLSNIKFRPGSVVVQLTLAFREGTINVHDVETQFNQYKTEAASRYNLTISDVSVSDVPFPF

B1: VH2 + VL3 (antibody, V domains shown)
VH: QVQLVQSGAEVKKPGASVKVSCKASGYAFSNFWMNWVRQAPGQGLEWMGQIYPGDGDTNYNGKFKGRVTMTRDTSTSTVYMELSSLRSEDTAVYYCARSYYRSAWFAYWGQGTLVTVSS
VL: EIVLTQSPATLSLSPGERATLSCRASQSIGTSIHWYQQKPGQAPRLLIYYASESISGIPARFSGSGSGTDFTLTISSLEPEDFAVYYCQQSNNWPLTFGGGTKVEIK
notes: Humanized IgG expressed in HEK293; also called humanized antibody VH2+VL3
B2: VH3 + VL3 (antibody, V domains shown)
VH: B1 VH with T76I, V79A, S85R, E89D
VL: B1 VL
notes: Humanized IgG expressed in HEK293; also called humanized antibody VH3+VL3
B3: VH5 + VL1 (antibody, V domains shown)
VH: EVQLVQSGAEVKKPGESLKISCKGSGYAFSNFWMNWVRQMPGKGLEWMGQIYPGDGDTNYNGKFKGQVTISADKSISTAYLQWSSLKASDTAMYYCARSYYRSAWFAYWGQGTLVTVSL
VL: EIVLTQSPDFQSVTPKEKVTITCRASQSIGTSIHWYQQKPDQSPKLLIKYASESISGVPSRFSGSGSGTDFTLTINSLEAEDAATYYCQQSNNWPLTFGQGTKVEIK
notes: Humanized IgG expressed in HEK293; also called humanized antibody VH5+VL1

The target of the first assay is T2, MUC1 on HCT116/MUC1 cells (UniProt P15941 24-1255, limits assumed).
T2 construct: whole, on cells; also called MUC1 overexpressed cell line
T2 sequence (P15941 24-1255 limits assumed): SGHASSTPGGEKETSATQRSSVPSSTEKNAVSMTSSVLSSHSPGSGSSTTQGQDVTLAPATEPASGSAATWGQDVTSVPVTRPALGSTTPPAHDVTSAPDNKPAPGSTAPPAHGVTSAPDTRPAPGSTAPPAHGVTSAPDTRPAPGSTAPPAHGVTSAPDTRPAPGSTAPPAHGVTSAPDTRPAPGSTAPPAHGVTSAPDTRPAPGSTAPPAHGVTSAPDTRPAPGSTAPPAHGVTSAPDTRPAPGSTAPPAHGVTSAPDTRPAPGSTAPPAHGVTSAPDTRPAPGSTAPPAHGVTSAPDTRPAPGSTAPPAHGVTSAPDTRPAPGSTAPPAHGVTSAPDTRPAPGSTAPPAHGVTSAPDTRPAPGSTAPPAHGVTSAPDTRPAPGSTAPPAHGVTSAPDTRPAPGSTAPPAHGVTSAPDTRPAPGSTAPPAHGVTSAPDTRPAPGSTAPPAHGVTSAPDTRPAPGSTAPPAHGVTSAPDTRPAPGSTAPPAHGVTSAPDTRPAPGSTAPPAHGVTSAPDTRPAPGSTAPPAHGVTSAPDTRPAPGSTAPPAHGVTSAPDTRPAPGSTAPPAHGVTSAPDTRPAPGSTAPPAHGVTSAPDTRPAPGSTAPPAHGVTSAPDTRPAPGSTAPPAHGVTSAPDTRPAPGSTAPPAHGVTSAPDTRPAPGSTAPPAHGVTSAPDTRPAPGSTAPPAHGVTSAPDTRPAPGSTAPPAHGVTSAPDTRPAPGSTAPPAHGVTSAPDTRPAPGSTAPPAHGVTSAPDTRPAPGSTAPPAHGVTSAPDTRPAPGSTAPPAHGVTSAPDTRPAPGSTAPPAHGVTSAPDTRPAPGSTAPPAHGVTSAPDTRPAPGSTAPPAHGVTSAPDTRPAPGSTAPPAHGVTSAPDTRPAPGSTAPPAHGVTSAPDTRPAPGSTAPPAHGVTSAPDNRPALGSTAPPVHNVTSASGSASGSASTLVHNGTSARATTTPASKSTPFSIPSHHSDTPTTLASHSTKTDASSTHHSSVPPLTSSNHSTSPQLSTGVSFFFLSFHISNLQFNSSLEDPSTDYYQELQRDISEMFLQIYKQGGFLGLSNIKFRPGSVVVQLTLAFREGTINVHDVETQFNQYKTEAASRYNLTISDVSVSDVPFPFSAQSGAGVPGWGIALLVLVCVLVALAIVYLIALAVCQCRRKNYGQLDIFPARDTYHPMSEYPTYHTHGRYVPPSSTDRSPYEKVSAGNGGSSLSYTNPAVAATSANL
The assay is described as follows: FACS titration on HCT116/MUC1 cells. The method, then:
(§1) To assess cell binding, 2×10⁵ HCT116/MUC1 cells per well were washed with PBS twice and incubated in 200 μl of serial dilutions of chimeric or humanized antibodies for 1 hour at room temperature. After washing 3 times with PBS, secondary antibody (2 μg/ml Alexa Flour®488 goat anti-human IgG) was added to cells and incubated for 30 minutes at room temperature. After washing with PBS, cells were analyzed by using FACSCalibur (BD Bioscience, San Jose, Calif.) and Flowjo software.
With B1, the EC50 (commonly the midpoint of the concentration-response curve) is 45.4 nM.

Take B2: the EC50 was 30.9 nM.

Turning to B3, a half-maximal effect (EC50) was put at 23.6 nM.

Another assay deals with T2, MUC1 on HCT116/MUC1 cells. The assay is described as follows: FACS titration, HCT116/MUC1 cells, antibody at 125 nM. As to the method:
as §1
Molecule B1 yielded a geometric mean of 147.

B2 gave a geometric mean of 151.

B3 registered a geometric mean of 326.

The target in another assay is T2, MUC1 on HCT116/MUC1 cells. The assay is described as follows: FACS titration, HCT116/MUC1 cells, antibody at 250 nM. As to the method: as §1
In the case of B1, the geometric mean came out at 167.

Molecule B2 gave a geometric mean of 154.

Consider B3, for which the geometric mean was found to be 327.

The next assay concerns the target T2, MUC1 on HCT116/MUC1 cells. In words: FACS titration, HCT116/MUC1 cells, antibody at 500 nM. As to the method: as §1
Turning to B1, the geometric mean came out at 178.

B2: the geometric mean is 148.

Turning to B3, the geometric mean was 316.

For a further assay, the target named is T2, MUC1 on HCT116/MUC1 cells. In words: FACS titration, HCT116/MUC1 cells, antibody at 62.5 nM. The method, then:
as §1
On to B1, for which the geometric mean came to 124.

B2 showed a geometric mean of 134.

The molecule B3 yielded a geometric mean of 291.

Another assay addresses T1, MUC1-SEA-His protein. The assay is described as follows: SPR Biacore T200, antibody captured, antigen as analyte. The method, then:
Antibody affinity was determined using a Surface Plasmon Resonance (SPR) biosensor, Biacore T200 (GE Healthcare). Antibody was immobilized on the sensor chip through Fc capture method. Antigen protein was used as the analyte. The data of dissociation (kd) and association (ka) rate constants were obtained using Biacore T200 evaluation software. The apparent equilibrium dissociation constants (KD) were calculated from the ratio of kd over ka. For affinity ranking, twenty-five humanized antibodies plus chimericantibody were injected and captured on sensor chip individually. The antibodies were ranked based on their dissociation rates (kd).
For orientation: Surface plasmon resonance follows binding to a sensor surface in real time, without labels.
Turning to B1, the koff (as a rule, the first-order rate constant of dissociation) amounted to 0.0124 s⁻¹.

Regarding B2, the koff amounted to 0.0152 s⁻¹.

B3: the koff worked out at 0.00192 s⁻¹.

A further assay deals with T2, MUC1 on HCT116/MUC1 cells. The assay is described as follows: FACS titration, HCT116/MUC1 cells, antibody at 0.244 nM. The method, then: as §1
B1: the geometric mean turned out to be 2.73.

On to B2, for which the geometric mean is 2.61.

For the molecule B3, the geometric mean is 2.67.

In a further assay the target is T2, MUC1 on HCT116/MUC1 cells. In words: FACS titration, HCT116/MUC1 cells, antibody at 0.488 nM. As to the method:
as §1
Take B1: the geometric mean was 2.74.

B2: the geometric mean turned out to be 2.65.

In the case of B3, the geometric mean is 2.93.

The next assay deals with T2, MUC1 on HCT116/MUC1 cells. The assay is described as follows: FACS titration, HCT116/MUC1 cells, antibody at 0.977 nM. The method, then:
as §1
The molecule B1 displayed a geometric mean of 2.83.

For the molecule B2, the geometric mean came to 2.95.

B3 showed a geometric mean of 4.25.

The target in the next assay is T2, MUC1 on HCT116/MUC1 cells. The assay is described as follows: FACS titration, HCT116/MUC1 cells, antibody at 1.953 nM. The method, then: as §1
Molecule B1 came in with a geometric mean of 3.25.

Turning to B2, the geometric mean is 3.64.

With B3, the geometric mean was found to be 7.02.

The target of the next assay is T2, MUC1 on HCT116/MUC1 cells. The assay is described as follows: FACS titration, HCT116/MUC1 cells, antibody at 3.906 nM. The method, then:
as §1
B1 registered a geometric mean of 4.03.

Take B2: the geometric mean amounted to 5.77.

Regarding B3, the geometric mean was found to be 20.

A further assay concerns the target T2, MUC1 on HCT116/MUC1 cells. The assay is described as follows: FACS titration, HCT116/MUC1 cells, antibody at 31.25 nM. As to the method: as §1
The molecule B1 returned a geometric mean of 60.4.

B2 showed a geometric mean of 77.2.

For the molecule B3, the geometric mean stood at 219.

A further assay concerns the target T2, MUC1 on HCT116/MUC1 cells. The assay is described as follows: FACS titration, HCT116/MUC1 cells, antibody at 7.812 nM. As to the method: as §1
B1: the geometric mean came out at 11.8.

Molecule B2 yielded a geometric mean of 7.91.

B3 yielded a geometric mean of 29.7.

In a further assay the target is T2, MUC1 on HCT116/MUC1 cells. In words: FACS titration, HCT116/MUC1 cells, antibody at 15.625 nM. As to the method:
as §1
Molecule B1 gave a geometric mean of 26.2.

In the case of B2, the geometric mean was determined as 27.3.

In turn, B3 showed a geometric mean of 91.2.
